Assay results from patent publication US20100048671.

Molecular target: T7-tagged tyrosine kinase Etk (UniProt P51813)
Sequence (P51813 whole entry): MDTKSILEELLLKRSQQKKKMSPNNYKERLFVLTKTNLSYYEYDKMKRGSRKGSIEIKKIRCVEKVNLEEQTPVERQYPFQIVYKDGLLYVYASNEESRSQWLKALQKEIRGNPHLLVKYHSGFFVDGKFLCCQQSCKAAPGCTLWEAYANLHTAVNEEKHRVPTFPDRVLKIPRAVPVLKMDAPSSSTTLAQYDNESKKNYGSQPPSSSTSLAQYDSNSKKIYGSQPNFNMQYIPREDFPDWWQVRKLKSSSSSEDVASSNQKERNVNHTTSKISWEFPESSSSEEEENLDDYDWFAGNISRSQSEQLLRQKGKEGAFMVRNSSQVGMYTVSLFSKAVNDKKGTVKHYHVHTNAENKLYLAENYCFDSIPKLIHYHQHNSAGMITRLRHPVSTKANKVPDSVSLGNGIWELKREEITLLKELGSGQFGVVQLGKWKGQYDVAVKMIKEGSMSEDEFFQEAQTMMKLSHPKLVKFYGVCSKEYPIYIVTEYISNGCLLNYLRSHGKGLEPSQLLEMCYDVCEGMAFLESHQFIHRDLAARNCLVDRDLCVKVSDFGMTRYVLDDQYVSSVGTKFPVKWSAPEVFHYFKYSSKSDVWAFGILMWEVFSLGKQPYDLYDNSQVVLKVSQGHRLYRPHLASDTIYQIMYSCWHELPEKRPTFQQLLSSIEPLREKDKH

Chain of Flag-tagged human 44 kD Pim-1 (Pim-1L) (chain, as listed by the source): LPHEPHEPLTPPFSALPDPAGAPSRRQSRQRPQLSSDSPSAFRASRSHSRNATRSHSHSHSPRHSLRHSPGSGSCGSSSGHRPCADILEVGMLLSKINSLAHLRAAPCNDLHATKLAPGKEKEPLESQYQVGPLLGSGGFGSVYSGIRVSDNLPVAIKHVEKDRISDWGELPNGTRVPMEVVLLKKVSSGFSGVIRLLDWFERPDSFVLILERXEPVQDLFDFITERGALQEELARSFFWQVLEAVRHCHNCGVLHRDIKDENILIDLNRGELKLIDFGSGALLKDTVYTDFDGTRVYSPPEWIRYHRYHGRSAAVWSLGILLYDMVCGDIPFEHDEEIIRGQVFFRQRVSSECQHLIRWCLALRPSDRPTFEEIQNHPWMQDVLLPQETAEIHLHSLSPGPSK
Chain of Flag-tagged Pim-1LΔP (Pim-1L with the first 15 amino acids deleted) (chain, as listed by the source mutant): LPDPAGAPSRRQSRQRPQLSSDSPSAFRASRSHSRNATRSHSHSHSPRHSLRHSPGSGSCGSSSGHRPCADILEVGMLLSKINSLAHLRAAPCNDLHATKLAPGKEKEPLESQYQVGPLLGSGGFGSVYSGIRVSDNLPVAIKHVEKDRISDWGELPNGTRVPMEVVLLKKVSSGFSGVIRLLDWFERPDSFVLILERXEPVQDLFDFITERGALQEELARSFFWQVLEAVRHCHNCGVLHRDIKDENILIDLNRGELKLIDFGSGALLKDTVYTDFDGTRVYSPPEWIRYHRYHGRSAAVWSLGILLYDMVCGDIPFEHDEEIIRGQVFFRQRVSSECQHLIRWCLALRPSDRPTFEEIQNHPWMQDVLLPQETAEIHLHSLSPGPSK

Row | Substance | in vitro kinase assay of Etk (tyrosine phosphorylation of the substrate Gab1) | tyrosine phosphorylation of Etk (IP anti-Etk, blot anti-phosphotyrosine)
1 | Flag-tagged Pim-1LΔP (Pim-1L with the first 15 amino acids deleted) | Deletion of the proline-rich PXXP motifs of Pim-1L (Pim-1LΔP) dramatically diminished its effects on the Etk kinase activity | 
2 | Flag-tagged human 44 kD Pim-1 (Pim-1L) | Co-expression of Etk with Pim-1L enhanced the kinase activity of Etk | unexpected robust increase of tyrosine phosphorylation of Etk
